Data from patent US20060088549A1, “Chimeric virus vaccine” (priority 2004, published 2006).
Entries after “also recorded” stand apart in the source; their conditions may differ.

Key:
2F5 = details: cited from earlier work; for binding/affinity to 2F5 relative to the LELDKWASL peptide: Tian, 2003
[1] = target: HRV14:HIV-1 gp41 […] chimeric virus 14-B128-12; assay: cell-based or functional assay
[2] = target: HRV14:HIV-1 gp41 […] chimeric virus 14-B128-22; assay: cell-based or functional assay
[3] = target: HRV14:HIV-1 gp41 […] chimeric virus 14-B128-23; assay: cell-based or functional assay
[4] = target: HRV14:HIV-1 gp41 […] chimeric virus 14-B64-5; assay: cell-based or functional assay
[5] = target: HRV14:HIV-1 gp41 […] chimeric virus 14-C1000-1; assay: cell-based or functional assay
[6] = target: HRV14:HIV-1 gp41 […] chimeric virus 14-C4000-1 (human rhinovirus type 14) (UniProt P03303); assay: cell-based or functional assay
[7] = target: HRV14:HIV-1 gp41 […] chimeric virus 14-C4000-14; assay: cell-based or functional assay
[8] = target: HRV14:HIV-1 gp41 […] chimeric virus 14-C512-2; assay: cell-based or functional assay
[9] = target: HRV14:HIV-1 gp41 […] chimeric virus 14-C512-3; assay: cell-based or functional assay
[10] = target: HRV14:HIV-1 gp41 […] chimeric virus 22-AN15000-8; assay: cell-based or functional assay
[11] = target: HRV14:HIV-1 gp41 […] chimeric virus 24-AN15000-3; assay: cell-based or functional assay
[12] = target: HRV14:HIV-1 gp41 […] chimeric virus 44-B256-2; assay: cell-based or functional assay
[13] = target: HRV14:HIV-1 gp41 […] chimeric virus 44-B4000-13; assay: cell-based or functional assay
[14] = target: HRV14:HIV-1 gp41 […] chimeric virus 44-B64-12; assay: cell-based or functional assay
[15] = target: HRV14:HIV-1 gp41 […] chimeric virus 44-B64-14; assay: cell-based or functional assay
[16] = target: HRV14:HIV-1 gp41 […] chimeric virus 44-B64-4; assay: cell-based or functional assay
[17] = target: HRV14:HIV-1 gp41 […] chimeric virus 44-BN30000-2; assay: cell-based or functional assay
[18] = target: HRV14:HIV-1 gp41 […] chimeric virus 44-BN30000-9; assay: cell-based or functional assay
[19] = target: HRV14:HIV-1 gp41 […] chimeric virus 44-BN7500-4; assay: cell-based or functional assay
[20] = target: HRV14:HIV-1 gp41 […] chimeric virus 44-C4000-4 (human rhinovirus type 14) (UniProt P03303); assay: cell-based or functional assay
[21] = target: HRV14:HIV-1 gp41 […] chimeric virus 64-B256-2; assay: cell-based or functional assay
[22] = target: HRV14:HIV-1 gp41 […] chimeric virus 64-B32-3; assay: cell-based or functional assay
[23] = target: HRV14:HIV-1 gp41 […] chimeric virus 64-B32-4; assay: cell-based or functional assay
[24] = target: HRV14:HIV-1 gp41 […] chimeric virus 64-C16-2; assay: cell-based or functional assay
[25] = target: HRV14:HIV-1 gp41 […] chimeric virus 64-C32-3; assay: cell-based or functional assay
[26] = target: Biotin-conjugated …-NH2 (HIV-1); assay: direct ELISA, IgG on immobilized biotinylated …; details: scale: reciprocal dilution of 1 mg/ml IgG at OD450 of 0.5

For Ac-CENEQELLELDKWASL-NH2 [Linear-1], the “binding/affinity to 2F5 relative to the LELDKWASL peptide” value (2F5) is listed as “higher affinities to 2F5”.

In the case of “Ac-CNEQELLEKDKWADL-NH2 (lactam (positions not given here); also: lactam bridge between underlined K and D, places not given here) [Lac-1, constrained peptide with a lactam bridge between K and D residues]”, the “binding/affinity to 2F5 relative to the LELDKWASL peptide” value (2F5) is listed as “higher affinities to 2F5; also recorded: two times more tightly”.

For LELDKWASL, the “binding to 2F5 in an ELISA relative to the shorter ELDKWAS peptide” value (2F5; Tian et al., 2002) is listed as about 100 fold.

human mAb 2F5 (antibody) showed a 2F5 IC50, microtiter neutralization assay [1] of 0.49 µg/mL, a 2F5 IC50, microtiter neutralization assay [2] of 0.57 µg/mL and a 2F5 IC50, microtiter neutralization assay [3] of 5.9 µg/mL. It also gave a 2F5 IC50, microtiter neutralization assay [4] of 0.29 µg/mL, a 2F5 IC50, microtiter neutralization assay [5] of 1.5 µg/mL and a 2F5 IC50, microtiter neutralization assay [6] of 0.98 µg/mL. The 2F5 IC50, microtiter neutralization assay [7] was 0.64 µg/mL, the 2F5 IC50, microtiter neutralization assay [8] was 0.05 µg/mL and the 2F5 IC50, microtiter neutralization assay [9] was 3 µg/mL. It also gave a 2F5 IC50, microtiter neutralization assay [10] of 8.2 µg/mL, a 2F5 IC50, microtiter neutralization assay [11] of 1.5 µg/mL and a 2F5 IC50, microtiter neutralization assay [12] of 0.31 µg/mL. It also gave a 2F5 IC50, microtiter neutralization assay [13] of 0.24 µg/mL, a 2F5 IC50, microtiter neutralization assay [14] of 0.21 µg/mL and a 2F5 IC50, microtiter neutralization assay [15] of 0.16 µg/mL. The 2F5 IC50, microtiter neutralization assay [16] was 0.06 µg/mL, the 2F5 IC50, microtiter neutralization assay [17] was 0.01 µg/mL and the 2F5 IC50, microtiter neutralization assay [18] was 0.02 µg/mL. For the same substance, the 2F5 IC50, microtiter neutralization assay [19] was 0.01 µg/mL, the 2F5 IC50, microtiter neutralization assay [20] was 0.66 µg/mL and the 2F5 IC50, microtiter neutralization assay [21] was 0.23 µg/mL. For the same substance, the 2F5 IC50, microtiter neutralization assay [22] was 0.05 µg/mL, the 2F5 IC50, microtiter neutralization assay [23] was 0.49 µg/mL and the 2F5 IC50, microtiter neutralization assay [24] was 0.07 µg/mL. For the same substance, the 2F5 IC50, microtiter neutralization assay [25] was 0.05 µg/mL and the … binding [26] was 2400.
